The source of these data is paper PMC9017566.

The experiment addresses hexon protein of recombinant chimpanzee adenovirus C68 (AdC68), free hexon trimer (AEX-HPLC "impurity" peak) (chimpanzee adenovirus C68). Nature of the experiment: native MS; native SEC-HPLC/MS of the AEX-HPLC "impurity" fraction; BEH SEC 200Å column, isocratic 40 mM ammonium formate, 25°C; Orbitrap EMR, gentle source parameters to keep non-covalent complexes assembled. A general note: Size exclusion chromatography separates by hydrodynamic size, large species first.

By stoichiometry N is commonly meant the number of molecules, sites or subunits per partner or assembly. Consider “hexon protein of recombinant chimpanzee adenovirus C68 (AdC68), free hexon trimer (AEX-HPLC "impurity" peak) (natural protein)”, for which the stoichiometry N came out at 3.
